Results taken from paper PMC10238393 (2023).

T1: LPHN2 olfactomedin-like (Olf) domain (human, UniProt O95490 135-394)
T1 chain: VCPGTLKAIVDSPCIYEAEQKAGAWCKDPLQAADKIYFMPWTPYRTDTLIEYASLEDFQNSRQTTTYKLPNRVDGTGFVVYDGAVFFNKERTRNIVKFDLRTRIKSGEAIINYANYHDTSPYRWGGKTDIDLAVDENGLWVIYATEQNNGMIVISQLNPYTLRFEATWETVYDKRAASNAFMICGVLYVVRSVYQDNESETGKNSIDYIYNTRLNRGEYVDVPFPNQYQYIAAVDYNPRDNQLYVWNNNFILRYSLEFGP

T2: LPHN2 Lec (Homo sapiens)
T2 chain: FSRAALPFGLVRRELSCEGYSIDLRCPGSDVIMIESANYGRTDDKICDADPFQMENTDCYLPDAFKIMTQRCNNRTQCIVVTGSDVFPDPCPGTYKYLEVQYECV

B1: leucine-rich α-2-glycoprotein 1 (LRG1): N79D (protein)
parent chain: MSSWSRQRPKSPGGIQPHVSRTLFLLLLLAASAWGVTLSPKDCQVFRSDHGSSISCQPPAEIPGYLPADTVHLAVEFFNLTHLPANLLQGASKLQELHLSSNGLESLSPEFLRPVPQLRVLDLTRNALTGLPPGLFQASATLDTLVLKENQLEVLEVSWLHGLKALGHLDLSGNRLRKLPPGLLANFTLLRTLDLGENQLETLPPDLLRGPLQLERLHLEGNKLQVLGKDLLLPQPDLRYLFLNGNKLARVAAGAFQGLRQLDMLDLSNNSLASVPEGLWASLGQPNWDMRDGFDISGNPWICDQNLSDLYRWLQAQKDKMFSQNDTRCAGPEAVKGQTLLAVAKSQ
B2: leucine-rich α-2-glycoprotein 1 (LRG1): N269D (protein)
parent chain: B1 parent chain
B3: leucine-rich α-2-glycoprotein 1 (LRG1): N325D (protein)
parent chain: B1 parent chain
B4: leucine-rich α-2-glycoprotein 1 (LRG1): N186D (protein)
parent chain: B1 parent chain
B5: Leucine-rich α-2-glycoprotein 1 (LRG1), recombinant human, glycosylated (natural protein)
chain: VTLSPKDCQVFRSDHGSSISCQPPAEIPGYLPADTVHLAVEFFNLTHLPANLLQGASKLQELHLSSNGLESLSPEFLRPVPQLRVLDLTRNALTGLPPGLFQASATLDTLVLKENQLEVLEVSWLHGLKALGHLDLSGNRLRKLPPGLLANFTLLRTLDLGENQLETLPPDLLRGPLQLERLHLEGNKLQVLGKDLLLPQPDLRYLFLNGNKLARVAAGAFQGLRQLDMLDLSNNSLASVPEGLWASLGQPNWDMRDGFDISGNPWICDQNLSDLYRWLQAQKDKMFSQNDTRCAGPEAVKGQTLLAVAKSQ
modifications: N-linked glycans (N-acetylglucosamine seen in the crystal) at N79, N186, N269 and N325; Alexa 647-conjugated in the FACS assay
B6: Deglycosylated LRG1 (LRG1 treated with PNGase F) (natural protein)
chain: B5 chain
modifications: N-glycans removed by PNGase F; Alexa 647-conjugated in the FACS assay

Assays:
[1] = recombinant protein expression level; details: glycan lost; control: LRG1 WT
[2] = biological target: LPHN2 Lec/Olf domain (human); assay: ELISA; solid-phase binding assay: LPHN2 extracellular domain variants (100 nM) coated on MaxiSorp 96-well plates, 1 h room temperature, blocked with 1% BSA; 0.001-10 μM LRG1 forms added; detected with anti-LRG1 antibody and peroxidase-conjugated secondary antibody
[3] = biological target: T1, LPHN2 olfactomedin-like (Olf) domain; assay: ELISA
LPHN2 Lec = biological target: T2, LPHN2 Lec; assay: ELISA
[4] = biological target: LPHN2 ecto-full domain (human); assay: ELISA; solid-phase binding assay: LPHN2 extracellular domain variants (100 nM) coated on MaxiSorp 96-well plates, 1 h room temperature, blocked with 1% BSA; 0.001-10 μM LRG1 forms added; detected with anti-LRG1 antibody and peroxidase-conjugated secondary antibody

| Binder | expression_or_secretion [1] | Kd [2] | other results |
| --- | --- | --- | --- |
| B1 | no change | – | – |
| B2 | no change | – | – |
| B3 | no change | – | – |
| B4 | no change | – | – |
| B5 | – | 920 nM | – |
| B6 | – | 450 nM | Kd [3]: 450 nM; Kd (LPHN2 Lec): 1100 nM; Kd [4]: 840 nM |
